Experiments:
human PDL1 on cells = human PDL1 on cells (human, UniProt Q9NZQ7 19-290); assay: cell-based or functional assay
[1] = target: T1, CD137 on Jurkat NFkB reporter cells (human, UniProt Q07011 24-255); assay: cell-based or functional assay
[2] = target: T1, CD137 on Jurkat NFkB reporter cells; assay: cell-based or functional assay; remark: listed apart in the source
[3] = target: T1, CD137 on Jurkat NFkB reporter cells; assay: cell-based or functional assay; remark: listed apart in the source
[4] = target: T1, CD137 on Jurkat NFkB reporter cells; assay: cell-based or functional assay; remark: listed apart in the source
[5] = target: human PDL1 extracellular domain (human, UniProt Q9NZQ7 19-238); assay: SPR, IgG format captured
Experimental: (§1) Affinity to PDL1 of the different species was determined by SPR measurements using a Biacore T200 device (GE Healthcare). An antibody specific for the Fc region of human IgGs was immobilized on a sensor chip (CM5 sensor chip, GE Healthcare) by amine-coupling. For all formats, with the exception of the Fc containing Morrison formats, PDL1-Fc chimeric protein from different species were captured by the immobilized antibody.
(§2) The Fc containing formats were directly captured by the antibody specific for the Fc region of human IgGs. Two-fold serial dilutions of PDL1 extracellular domain or CD137 extracellular domain ranging from 90 to 0.35 nM were tested for binding to the IgG captured on the biosensor chip. After each injection cycle, surfaces were regenerated with one injection of a 3 M MgCl2 solution.

[6] = target: T2, human CD137 extracellular domain (human, UniProt Q07011 24-186); assay: SPR, IgG format captured
T2 construct: also called CD137 (PeproTech, cat. 310-15)
Experimental: as §1, §2

biotinylated human PDL1 [7] = target: T3, biotinylated human PDL1 (human, UniProt Q9NZQ7 19-238, limits assumed, biotinylated); assay: competition ELISA B7.1/PDL1
T3 construct: also called biotinylated PDL1
How it was run: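 IC₅₀ was derived by four-parameter logistic fitting of reference-subtracted A450/690 readings. The signal came from streptavidin-polyHRP40 (10 ng/ml) with a 6-minute TMB reaction detecting biotinylated PDL1 bound to the plate. Pre-mixed samples sat 1 h at RT before a 1.5 h plate incubation.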

biotinylated human PDL1 [8] = target: T3, biotinylated human PDL1; assay: competition ELISA PD-1/PDL1

Row | IC50 (ng/ml), NF-AT potency assay (human PDL1 on cells) [ng/mL] | rel. IC50 (avelumab/test) (human PDL1 on cells) [fold] | IC50 (ng/ml), NFkB reporter, CHO-PD-L1, 24 h [4] [ng/mL] | rel. IC50 (urelumab/test), NFkB reporter, CHO-PD-L1, 24 h [4] [fold] | koff [5] [s⁻¹] | Kd [6] [nM] | koff [6] [s⁻¹] | IC50 (biotinylated human PDL1 [7]) [µg/mL] | rel. IC50 (IC50 avelumab/IC50 test) (biotinylated human PDL1 [7]) [fold] | IC50 (biotinylated human PDL1 [8]) [µg/mL] | rel. IC50 (IC50 avelumab/IC50 test) (biotinylated human PDL1 [8]) [fold] | Binder | also measured
1 | 133 | 0.44 | 80.8 | 0.58 | 4.6e-05 | 1.3 | 0.00039 | 0.0174 | 0.49 | 0.00567 | 0.3 | PRO1060 (bispecific antibody, human IgG1, kappa, L234A L235A, silent hIgG1 anti-PDL1 with anti-CD137 scFv on the heavy chain; also called 33-03-G02 IgG1 HC with 38-02-A04 sc01 scFv; Morrison-H) light: DIQMTQSPSSLSASVGDRVTITCQASQSINDYLAWYQQKPGKAPKLLIYKASTLASGVPSRFSGSGSGTDFTLTISSLQPEDFATYYCQQGYIITDIDNVFGTGTKVTVLGTVAAPSVFIFPPSDEQLKSGTASVVCLLNNFYPREAKVQWKVDNALQSGNSQESVTEQDSKDSTYSLSSTLTLSKADYEKHKVYACEVTHQGLSSPVTKSFNRGEC heavy: QVQLQESGPGLVKPSETLSLTCKVSGFSFSSGYDMCWIRQPPGKGLEWIGCVVAGSVDITYYASWAKGRVTISVDSSKNQFSLKLSSVTAADTAVYYCARKDAYSDAFNLWGQGTLVTVSSASTKGPSVFPLAPSSKSTSGGTAALGCLVKDYFPEPVTVSWNSGALTSGVHTFPAVLQSSGLYSLSSVVTVPSSSLGTQTYICNVNHKPSNTKVDKRVEPKSCDKTHTCPPCPAPEAAGGPSVFLFPPKPKDTLMISRTPEVTCVVVDVSHEDPEVKFNWYVDGVEVHNAKTKPREEQYNSTYRVVSVLTVLHQDWLNGKEYKCKVSNKALGAPIEKTISKAKGQPREPQVYTLPPSREEMTKNQVSLTCLVKGFYPSDIAVEWESNGQPENNYKTTPPVLDSDGSFFLYSKLTVDKSRWQQGNVFSCSVMHEALHNHYTQKSLSLSPGKGGGGSGGGGSIQMTQSPSSLSASVGDRVTITCQASQSINNVLAWYQQKPGKAPKLLIYRASTLASGVPSRFSGSGSGTDFTLTISSLQPEDFATYYCQSSYGNYGDFGTGTKVTVLGGGGGSGGGGSGGGGSGGGGSQVQLQESGPGLVKPSETLSLTCKVSGFSFSNSYWICWIRQPPGKGLEWIGCTFVGSSDSTYYANWAKGRVTISVDSSKNQFSLKLSSVTAADTAVYYCARHPSDAVYGYANNLWGQGTLVTVSS | EC50, NFkB reporter, CHO-PDL1, 6 h [1]: 0.0564 µg/mL; EC50, NFkB reporter, CHO-PDL1, 24 h [2]: 0.0808 µg/mL; EC50, NFkB reporter, HCC827 with IFNg, 24 h [3]: 0.0175 µg/mL; EC50, NFkB reporter, HCC827 without IFNg, 24 h [3]: 0.0136 µg/mL; IC50 (ng/ml), NFkB reporter, HCC827 + IFNg, 24 h [4]: 17.5 ng/mL; IC50 (ng/ml), NFkB reporter, HCC827 - IFNg, 24 h [4]: 13.6 ng/mL; rel. IC50 (urelumab/test), NFkB reporter, HCC827 + IFNg, 24 h [4]: 3.01 fold; rel. IC50 (urelumab/test), NFkB reporter, HCC827 - IFNg, 24 h [4]: 3.5 fold; kon [5]: 1.3e+06 M⁻¹ s⁻¹
2 | 93.8 | 0.52 | 289 | 0.09 | 6.5e-05 | 2.3 | 0.00042 | 0.029 | 0.3 | 0.00454 | 0.37 | PRO1059 (bispecific antibody, human IgG1, kappa, L234A L235A, silent hIgG1 anti-PDL1 with anti-CD137 scFv on the light chain; also called 33-03-G02 IgG1 LC with 38-02-A04 sc01 scFv; Morrison-L) light: DIQMTQSPSSLSASVGDRVTITCQASQSINDYLAWYQQKPGKAPKLLIYKASTLASGVPSRFSGSGSGTDFTLTISSLQPEDFATYYCQQGYIITDIDNVFGTGTKVTVLGTVAAPSVFIFPPSDEQLKSGTASVVCLLNNFYPREAKVQWKVDNALQSGNSQESVTEQDSKDSTYSLSSTLTLSKADYEKHKVYACEVTHQGLSSPVTKSFNRGECGGGGSGGGGSIQMTQSPSSLSASVGDRVTITCQASQSINNVLAWYQQKPGKAPKLLIYRASTLASGVPSRFSGSGSGTDFTLTISSLQPEDFATYYCQSSYGNYGDFGTGTKVTVLGGGGGSGGGGSGGGGSGGGGSQVQLQESGPGLVKPSETLSLTCKVSGFSFSNSYWICWIRQPPGKGLEWIGCTFVGSSDSTYYANWAKGRVTISVDSSKNQFSLKLSSVTAADTAVYYCARHPSDAVYGYANNLWGQGTLVTVSS heavy: QVQLQESGPGLVKPSETLSLTCKVSGFSFSSGYDMCWIRQPPGKGLEWIGCVVAGSVDITYYASWAKGRVTISVDSSKNQFSLKLSSVTAADTAVYYCARKDAYSDAFNLWGQGTLVTVSSASTKGPSVFPLAPSSKSTSGGTAALGCLVKDYFPEPVTVSWNSGALTSGVHTFPAVLQSSGLYSLSSVVTVPSSSLGTQTYICNVNHKPSNTKVDKRVEPKSCDKTHTCPPCPAPEAAGGPSVFLFPPKPKDTLMISRTPEVTCVVVDVSHEDPEVKFNWYVDGVEVHNAKTKPREEQYNSTYRVVSVLTVLHQDWLNGKEYKCKVSNKALGAPIEKTISKAKGQPREPQVYTLPPSREEMTKNQVSLTCLVKGFYPSDIAVEWESNGQPENNYKTTPPVLDSDGSFFLYSKLTVDKSRWQQGNVFSCSVMHEALHNHYTQKSLSLSPGK | kon [6]: 180000 M⁻¹ s⁻¹

— US20230192897A1 (NUMAB THERAPEUTICS, published 2023)
